Data as given in patent US20210253718A1, “FRIZZLED5 PROTEIN-BINDING AGENTS” (Modmab Therapeutics Corporation, priority 2016, published 2021).
Numbering of substitutions follows the chain as printed.

T1: FZD6 CRD (Homo sapiens, UniProt O60353)
T1 construct: S20-P146; GPI anchor signal (C); expressed in transfected cells; host or cells: CHO cells, lentiviral pLenti-puro
T1 sequence (O60353 20-146): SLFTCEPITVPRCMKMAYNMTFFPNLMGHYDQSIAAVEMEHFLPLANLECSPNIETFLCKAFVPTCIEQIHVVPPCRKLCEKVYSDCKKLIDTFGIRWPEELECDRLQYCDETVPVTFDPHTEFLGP

T2: FZD10 CRD (Homo sapiens, UniProt Q9ULW2)
T2 construct: 30-156; GPI anchor signal (C); expressed in transfected cells; host or cells: CHO cells, lentiviral pLenti-puro
T2 sequence (Q9ULW2 30-156): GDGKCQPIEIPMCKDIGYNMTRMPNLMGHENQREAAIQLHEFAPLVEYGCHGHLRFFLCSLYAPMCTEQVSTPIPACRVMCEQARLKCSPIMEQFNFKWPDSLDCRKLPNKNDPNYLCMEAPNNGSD

B1: Fab-2928: anti-FZD5 Fab with antibody variable region Fv-2928; CDR SEQ ID NOs: 35, 36, 67, 105, 143, 175 (antibody, V domains shown)
VH: EVQLVESGGGLVQPGGSLRLSCAASGFNISYSSIHWVRQAPGKGLEWVASIYPSYSSTYYADSVKGRFTISADTSKNTAYLQMNSLRAEDTAVYYCARYYAMDYWGQGTLVTVSS
VL: DIQMTQSPSSLSASVGDRVTITCRASQSVSSAVAWYQQKPGKAPKLLIYSASSLYSGVPSRFSGSRSGTDFTLTISSLQPEDFATYYCQQAFYYPITFGQGTKVEIK
B2: Fab-2929: anti-FZD5 Fab with antibody variable region Fv-2929; CDR SEQ ID NOs: 35, 36, 68, 106, 144, 162 (antibody, V domains shown)
VH: EVQLVESGGGLVQPGGSLRLSCAASGFNISYYYIHWVRQAPGKGLEWVASIYPSSSSTSYADSVKGRFTISADTSKNTAYLQMNSLRAEDTAVYYCARGAMDYWGQGTLVTVSS
VL: DIQMTQSPSSLSASVGDRVTITCRASQSVSSAVAWYQQKPGKAPKLLIYSASSLYSGVPSRFSGSRSGTDFTLTISSLQPEDFATYYCQQWYSSYGLITFGQGTKVEIK
B3: Fab-2934: anti-FZD5 Fab with antibody variable region Fv-2934; CDR SEQ ID NOs: 35, 36, 73, 110, 149, 155 (antibody, V domains shown)
VH: B2 VH with Y32S, I34M, P53S, S56G, M101I
VL: DIQMTQSPSSLSASVGDRVTITCRASQSVSSAVAWYQQKPGKAPKLLIYSASSLYSGVPSRFSGSRSGTDFTLTISSLQPEDFATYYCQQWYHYGLITFGQGTKVEIK
B4: Fab-2936: anti-FZD5 Fab with antibody variable region Fv-2936; CDR SEQ ID NOs: 35, 36, 75, 112, 151, 179 (antibody, V domains shown)
VH: B2 VH with I34M, P53S, S56G, G99A
VL: B3 VL with H93A, Y94A, G95S
B5: Fab-2932: anti-FZD5 Fab with antibody variable region Fv-2932; CDR SEQ ID NOs: 35, 36, 71, 108, 147, 153 (antibody, V domains shown)
VH: B2 VH with Y32S, I34M, P53S, S55Y, M101L
VL: B2 VL with S93G, Y95F, G96A
B6: Fab-2926: anti-FZD5 Fab with antibody variable region Fv-2926; CDR SEQ ID NOs: 35, 36, 65, 103, 141, 173 (antibody, V domains shown)
VH: B2 VH with S30Y, Y31S, Y32S, I34M, A100G, M101L
VL: B2 VL with S93H, S94G, Y95G, G96S, I98F
B7: Fab-2933: anti-FZD5 Fab with antibody variable region Fv-2933; CDR SEQ ID NOs: 35, 36, 72, 109, 148, 177 (antibody, V domains shown)
VH: EVQLVESGGGLVQPGGSLRLSCAASGFNLYSSYMHWVRQAPGKGLEWVASIYSSYGYTSYADSVKGRFTISADTSKNTAYLQMNSLRAEDTAVYYCARTVRGSKKPYFSGWAMDYWGQGTLVTVSS
VL: DIQMTQSPSSLSASVGDRVTITCRASQSVSSAVAWYQQKPGKAPKLLIYSASSLYSGVPSRFSGSRSGTDFTLTISSLQPEDFATYYCQQFWWYASWLFTFGQGTKVEIK

Columns and labels:
PATU8988S cells [1] = assay: Effect of anti-FZD5 Fabs on proliferation of pancreatic cancer cell lines (percent growth inhibition); assay type: cell-based, human; conditions: Fab 10 μg/ml
Procedure: (§1) The effect of presently disclosed anti-FZD5 Fabs on proliferation of RNF43 loss-of-function mutant pancreatic cancer cell lines HPAFII, PATU8988S and ASPC-1; and on pancreatic cancer cell line RWP1, was tested at […] and 10 μg/ml.

HPAFII cells = assay: as above; assay type: cell-based, human; conditions: for percent growth inhibition, HPAFII 2 μg/ml: Fab 2 μg/ml; for percent growth inhibition, HPAFII 10 μg/ml: Fab 10 μg/ml
Procedure: as §1

ASPC-1 cells [2] = assay: as above; assay type: cell-based, human; conditions: Fab 10 μg/ml
Procedure: as §1

RWP1 cells [3] = assay: as above; assay type: cell-based, human; conditions: Fab 10 μg/ml
Procedure: as §1

RWP1 cells [4] = assay: as above; assay type: cell-based, human; conditions: Fab 2 μg/ml
FZD6 CRD = biological target: T1, FZD6 CRD; assay: Immunofluorescence of anti-FZD5 Fab binding to CHO cells overexpressing Frizzled CRD; set-up: key: −: no binding; +: very weak binder; ++: weak binder; +++: good binder; ++++: very good binder
Outline: (§2)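 First, ten CHO cell lines were made, each lentivirally expressing a different human Frizzled CRD tagged with myc and tethered by GPI. Next, anti-FZD5 Fabs were added to each line. Finally, binding was assessed by immunofluorescence and flow cytometry.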

FZD10 CRD = biological target: T2, FZD10 CRD; assay: as above; set-up: key: −: no binding; +: very weak binder; ++: weak binder; +++: good binder; ++++: very good binder
Outline: as §2

FZD7 CRD = biological target: T3, FZD7 CRD (Homo sapiens, UniProt O75084); assay: as above; set-up: key: −: no binding; +: very weak binder; ++: weak binder; +++: good binder; ++++: very good binder
T3 construct: D45-S169; GPI anchor signal (C); expressed in transfected cells; host or cells: CHO cells, lentiviral pLenti-puro
Outline: as §2

PATU8988S cells [5] = assay: Effect of anti-FZD5 Fabs on proliferation of pancreatic cancer cell lines (percent growth inhibition); assay type: cell-based, human; conditions: Fab 2 μg/ml
ASPC-1 cells [6] = assay: as above; assay type: cell-based, human; conditions: Fab 2 μg/ml

| Molecule | percent growth inhibition, PATU8988s 10 μg/ml (PATU8988S cells [1]) | percent growth inhibition, HPAFII 2 μg/ml (HPAFII cells) | percent growth inhibition, HPAFII 10 μg/ml (HPAFII cells) | percent growth inhibition, ASPC-1 10 μg/ml (ASPC-1 cells [2]) | percent growth inhibition, RWP1 10 μg/ml (RWP1 cells [3]) | percent growth inhibition, RWP1 2 μg/ml (RWP1 cells [4]) | Immunofluorescence binding, Frizzled CRD overexpressed on CHO cells: FZD6 (FZD6 CRD) | Immunofluorescence binding, Frizzled CRD overexpressed on CHO cells: FZD10 (FZD10 CRD) | Immunofluorescence binding, Frizzled CRD overexpressed on CHO cells: FZD7 (FZD7 CRD) | percent growth inhibition, PATU8988s 2 μg/ml (PATU8988S cells [5]) | percent growth inhibition, ASPC-1 2 μg/ml (ASPC-1 cells [6]) |
| --- | --- | --- | --- | --- | --- | --- | --- | --- | --- | --- | --- |
| B1 | −30.22% | −17.90% | −25.51% | 6.27% | 32.47% | −8.19% | − | − | − | −2.11% | 2.33% |
| B2 | −27.58% | 20.20% | 33.42% | 41.25% | 2.21% | 0.41% | − | − | + | −24.05% | 41.68% |
| B3 | 1.78% | 3.40% | 20.44% | 36.76% | 0.90% | 7.90% | − | − | − | −9.14% | 26.80% |
| B4 | −23.52% | −0.56% | 12.21% | 22.02% | −5.97% | 0.02% | − | − | − | −8.03% | 17.01% |
| B5 | −8.85% | −0.17% | 3.21% | 28.62% | 25.69% | 32.22% | − | − | ++ | −14.70% | 28.71% |
| B6 | −36.54% | −6.88% | 4.88% | 24.71% | 40.20% | 37.95% | − | − | − | −15.89% | 17.27% |
| B7 | −17.17% | −14.19% | −6.12% | 19.44% | 27.16% | −21.16% | − | − | + | 6.02% | −1.03% |
